Source: US20100003244A1 (TRIGEN, published 2010)
Where “and” joins values, the source holds several entries; their conditions need not be identical. Identical values can stand only once. One block for each molecule: values may come before it. Ends that are not written are not given here.

How the values were obtained:
mouse GPVI (mouse) = mouse GPVI (mouse) (UniProt P0C191); assay: cell-based or functional assay
GPVI peptide 117 (human) [1] = molecular target: T1, GPVI peptide 117 (human); assay: PepSpot control incubation
T1 sequence (peptide, N-terminus acetylated): SFTNKVFTTETSR

GPVI peptide 118 (human) [2] = molecular target: T2, GPVI peptide 118 (human); assay: PepSpot control incubation
T2 sequence (peptide, N-terminus acetylated): TNKVFTTETSRSI

GPVI peptide 130 (human) [3] = molecular target: T3, GPVI peptide 130 (human); assay: PepSpot control incubation
T3 sequence (peptide, N-terminus acetylated): GPARQYYTKGNGG

GPVI peptide 131 (human) [4] = molecular target: T4, GPVI peptide 131 (human); assay: PepSpot control incubation
T4 sequence (peptide, N-terminus acetylated): ARQYYTKGNGGRE

GPVI peptide 32 (human) [5] = molecular target: T5, GPVI peptide 32 (human); assay: PepSpot control incubation
T5 sequence (peptide, N-terminus acetylated): SSSRYQDQAVLFI

GPVI peptide 33 (human) [6] = molecular target: T6, GPVI peptide 33 (human); assay: PepSpot control incubation
T6 sequence (peptide, N-terminus acetylated): SRYQDQAVLFIPA

GPVI peptide 53 (human) [7] = molecular target: T7, GPVI peptide 53 (human); assay: PepSpot control incubation
T7 sequence (peptide, N-terminus acetylated): LVATGVFAKPSLS

GPVI peptide 7 (human) [8] = molecular target: T8, GPVI peptide 7 (human); assay: PepSpot control incubation
T8 sequence (peptide, N-terminus acetylated): LCLGRVPAQSGPL

GPVI peptide 11 [9] = molecular target: T9, GPVI peptide 11 (human); assay: PepSpot control incubation
T9 peptide: Ac-QSGPLPKPSLQAL

GPVI peptide 37 [10] = molecular target: T10, GPVI peptide 37 (human); assay: PepSpot control incubation
T10 peptide: Ac-LFIPAMKRSLAGR

GPVI peptide 54 [11] = molecular target: T11, GPVI peptide 54 (human); assay: PepSpot control incubation
T11 peptide: Ac-ATGVFAKPSLSAQ

[12] = molecular target: collagen (type I bovine; BD Bioscience) (bovine) (UniProt P02453); assay: ELISA, collagen type 1 coated plates, Lineweaver-Burk plot
Fc-GPVI-nt (human) = assay: competition ELISA, immobilized collagen
GPVI peptide 117 (human) [13] = molecular target: T1, GPVI peptide 117 (human); assay: PepSpot array
GPVI peptide 118 (human) [14] = molecular target: T2, GPVI peptide 118 (human); assay: PepSpot array
GPVI peptide 130 (human) [15] = molecular target: T3, GPVI peptide 130 (human); assay: PepSpot array
GPVI peptide 131 (human) [16] = molecular target: T4, GPVI peptide 131 (human); assay: PepSpot array
GPVI peptide 32 (human) [17] = molecular target: T5, GPVI peptide 32 (human); assay: PepSpot array
GPVI peptide 33 (human) [18] = molecular target: T6, GPVI peptide 33 (human); assay: PepSpot array
GPVI peptide 53 (human) [19] = molecular target: T7, GPVI peptide 53 (human); assay: PepSpot array
GPVI peptide 7 (human) [20] = molecular target: T8, GPVI peptide 7 (human); assay: PepSpot array
GPVI peptide 11 [21] = molecular target: T9, GPVI peptide 11; assay: PepSpot array
Procedure: (§1) The peptides were synthesized on a cellulose membrane in a stepwise manner resulting in a defined arrangement (peptide array) and are covalently bound to the cellulose membrane. Binding assays were performed directly on the peptide array. In general an antigen peptide array is incubated with blocking buffer for several hours to reduce non-specific binding of proteins or antibodies. It follows the incubation with a primary (antigen peptide-binding) antibody in blocking buffer and an incubation with a horseradish peroxidase (HRP)-labelled secondary antibody, which binds selectively the primary antibody. Alternatively a HRP-labelled primary antibody in blocking buffer can be used.
(§2) A short T(Tween)-TBS-buffer washing directly after the incubation of the antigen peptide array with the secondary protein or antibody or the HRP-labelled primary antibody followed by the first chemiluminescence experiment is made to get an first overview which antigen peptides do bind the primary antibody. Several buffer washing steps follow (T-TBS- and TBS-buffer) to reduce false positive binding (unspecific antibody binding to the cellulose membrane itself). After these washing steps the final chemiluminescence analysis is performed. The data were analysed with an imaging system showing the signal intensity (Light units, LU) as single measurements for each peptide. In order to evaluate non-specific binding of secondary antibodies, incubations using the secondary antibody have to be performed in the absence of the primary antibody as control incubation.

GPVI peptide 37 [22] = molecular target: T10, GPVI peptide 37; assay: PepSpot array
Procedure: as §1, §2

GPVI peptide 54 [23] = molecular target: T11, GPVI peptide 54; assay: PepSpot array
Procedure: as §1, §2

Chain of mouse GPVI (mouse) (P0C191 22-313): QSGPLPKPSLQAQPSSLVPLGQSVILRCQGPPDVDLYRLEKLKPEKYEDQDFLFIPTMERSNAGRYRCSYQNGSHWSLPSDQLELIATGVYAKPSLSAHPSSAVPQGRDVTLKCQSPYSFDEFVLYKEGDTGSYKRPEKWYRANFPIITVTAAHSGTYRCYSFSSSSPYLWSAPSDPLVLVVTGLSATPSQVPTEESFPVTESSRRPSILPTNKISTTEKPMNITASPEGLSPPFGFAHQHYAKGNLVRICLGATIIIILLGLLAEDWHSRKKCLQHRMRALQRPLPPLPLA
Chain of collagen (type I bovine; BD Bioscience) (bovine) (P02453 162-1217, chain 1 of 2): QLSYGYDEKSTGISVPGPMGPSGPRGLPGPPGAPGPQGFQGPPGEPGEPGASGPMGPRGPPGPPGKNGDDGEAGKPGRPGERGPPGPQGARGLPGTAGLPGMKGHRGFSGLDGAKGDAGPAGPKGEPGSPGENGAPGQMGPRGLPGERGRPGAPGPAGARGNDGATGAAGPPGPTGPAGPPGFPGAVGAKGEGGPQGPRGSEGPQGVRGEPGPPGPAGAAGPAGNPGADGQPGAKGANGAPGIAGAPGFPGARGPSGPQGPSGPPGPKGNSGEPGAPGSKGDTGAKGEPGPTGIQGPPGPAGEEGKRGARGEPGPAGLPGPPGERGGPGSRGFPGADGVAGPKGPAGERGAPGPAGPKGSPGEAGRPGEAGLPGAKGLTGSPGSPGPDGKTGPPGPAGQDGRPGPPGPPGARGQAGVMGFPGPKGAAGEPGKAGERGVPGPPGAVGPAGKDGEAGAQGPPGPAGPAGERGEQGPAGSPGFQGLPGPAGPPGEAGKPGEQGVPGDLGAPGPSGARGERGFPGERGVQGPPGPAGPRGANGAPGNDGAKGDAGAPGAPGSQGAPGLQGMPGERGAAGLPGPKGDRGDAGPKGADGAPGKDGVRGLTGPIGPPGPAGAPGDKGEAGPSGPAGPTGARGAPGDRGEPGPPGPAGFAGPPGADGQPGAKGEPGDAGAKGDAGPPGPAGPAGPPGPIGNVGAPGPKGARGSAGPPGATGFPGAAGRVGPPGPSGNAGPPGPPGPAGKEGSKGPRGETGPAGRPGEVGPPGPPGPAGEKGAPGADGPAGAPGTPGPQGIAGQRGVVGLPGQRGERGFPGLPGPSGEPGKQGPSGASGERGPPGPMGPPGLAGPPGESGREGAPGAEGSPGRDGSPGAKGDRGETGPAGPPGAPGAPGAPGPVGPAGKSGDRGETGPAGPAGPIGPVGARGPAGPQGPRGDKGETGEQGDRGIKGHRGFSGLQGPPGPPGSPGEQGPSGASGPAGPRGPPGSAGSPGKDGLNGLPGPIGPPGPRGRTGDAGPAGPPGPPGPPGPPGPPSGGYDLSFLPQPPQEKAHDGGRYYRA
Chain of collagen (type I bovine; BD Bioscience) (bovine) (P02465 80-1117, chain 2 of 2, further chain): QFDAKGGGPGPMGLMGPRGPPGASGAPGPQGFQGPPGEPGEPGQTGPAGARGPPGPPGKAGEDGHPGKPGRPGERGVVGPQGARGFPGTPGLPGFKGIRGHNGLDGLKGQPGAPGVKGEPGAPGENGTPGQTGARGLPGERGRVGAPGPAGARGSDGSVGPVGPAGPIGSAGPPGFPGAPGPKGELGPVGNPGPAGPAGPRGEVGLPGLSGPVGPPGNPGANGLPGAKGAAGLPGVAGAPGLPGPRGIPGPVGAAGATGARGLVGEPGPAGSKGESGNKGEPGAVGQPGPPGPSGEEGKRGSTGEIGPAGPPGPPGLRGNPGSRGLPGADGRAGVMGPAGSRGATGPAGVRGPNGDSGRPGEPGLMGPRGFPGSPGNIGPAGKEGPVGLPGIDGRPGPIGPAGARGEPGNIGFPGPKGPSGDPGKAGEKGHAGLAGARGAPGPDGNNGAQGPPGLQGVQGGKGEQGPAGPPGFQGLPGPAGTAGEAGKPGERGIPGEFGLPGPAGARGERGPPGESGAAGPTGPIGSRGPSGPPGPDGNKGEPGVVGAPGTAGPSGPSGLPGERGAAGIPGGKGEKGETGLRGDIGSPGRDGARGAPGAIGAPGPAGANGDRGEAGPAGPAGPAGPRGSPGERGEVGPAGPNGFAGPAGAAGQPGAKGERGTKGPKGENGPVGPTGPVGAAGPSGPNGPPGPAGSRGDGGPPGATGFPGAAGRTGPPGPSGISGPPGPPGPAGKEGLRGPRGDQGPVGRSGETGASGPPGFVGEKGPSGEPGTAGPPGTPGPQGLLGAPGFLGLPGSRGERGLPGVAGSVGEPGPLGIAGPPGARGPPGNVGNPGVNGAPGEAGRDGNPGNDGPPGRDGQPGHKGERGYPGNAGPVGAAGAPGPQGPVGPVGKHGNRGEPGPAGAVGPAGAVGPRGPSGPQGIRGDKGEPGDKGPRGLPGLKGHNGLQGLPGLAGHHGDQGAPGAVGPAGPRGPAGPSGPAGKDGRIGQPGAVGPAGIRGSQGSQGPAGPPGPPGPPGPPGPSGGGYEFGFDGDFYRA
Chain of Fc-GPVI-nt (human) (chain, as listed by the source limits assumed): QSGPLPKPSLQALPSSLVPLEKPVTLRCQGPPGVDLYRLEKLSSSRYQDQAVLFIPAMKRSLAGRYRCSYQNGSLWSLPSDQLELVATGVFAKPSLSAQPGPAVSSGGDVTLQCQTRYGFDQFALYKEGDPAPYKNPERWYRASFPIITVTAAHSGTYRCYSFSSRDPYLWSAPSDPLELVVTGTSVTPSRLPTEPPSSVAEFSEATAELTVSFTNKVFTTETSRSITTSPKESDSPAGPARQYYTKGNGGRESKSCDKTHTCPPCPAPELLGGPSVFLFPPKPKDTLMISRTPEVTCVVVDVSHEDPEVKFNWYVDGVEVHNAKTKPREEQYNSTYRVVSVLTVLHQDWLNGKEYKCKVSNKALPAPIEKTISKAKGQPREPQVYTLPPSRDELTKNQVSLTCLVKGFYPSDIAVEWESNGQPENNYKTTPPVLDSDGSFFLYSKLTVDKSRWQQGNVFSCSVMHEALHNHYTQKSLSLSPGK

ATP release, mouse platelet-rich plasma (mouse GPVI (mouse)): 1.09 nM ATP | platelet aggregation after stimulation with 2 µg collagen/ml, mouse platelet-rich plasma (mouse GPVI (mouse)): 2% and 1.5%
Molecule: JAQ1 (antibody)

LU (Light Units) (GPVI peptide 117 (human) [1]): 377 LU | LU (Light Units) (GPVI peptide 118 (human) [2]): 354 LU | LU (Light Units) (GPVI peptide 130 (human) [3]): 343 LU | LU (Light Units) (GPVI peptide 131 (human) [4]): 389 LU | LU (Light Units) (GPVI peptide 32 (human) [5]): 240 LU | LU (Light Units) (GPVI peptide 33 (human) [6]): 204 LU | LU (Light Units) (GPVI peptide 53 (human) [7]): 240 LU | LU (Light Units) (GPVI peptide 7 (human) [8]): 239 LU | LU (Light Units) (GPVI peptide 11 [9]): 212 LU | LU (Light Units) (GPVI peptide 37 [10]): 280 LU | LU (Light Units) (GPVI peptide 54 [11]): 190 LU
Molecule: anti-rat-HRP (Sigma A9037) (antibody)

fold lower affinity compared to dimeric Fc-GPVI-nt [12]: 10 fold
Molecule: monomeric GPVI fusion protein (Fc fusion)

concentration required to reduce Fc-GPVI-nt binding to immobilized collagen by more than 50% (Fc-GPVI-nt (human)): 100 µg/mL
Molecule: soluble collagen (ligand)

LU (Light Units) (GPVI peptide 117 (human) [13]): 472 LU | LU (Light Units) (GPVI peptide 118 (human) [14]): 336 LU | LU (Light Units) (GPVI peptide 130 (human) [15]): 255 LU | LU (Light Units) (GPVI peptide 131 (human) [16]): 289 LU | LU (Light Units) (GPVI peptide 32 (human) [17]): 319 LU | LU (Light Units) (GPVI peptide 33 (human) [18]): 259 LU | LU (Light Units) (GPVI peptide 53 (human) [19]): 359 LU | LU (Light Units) (GPVI peptide 7 (human) [20]): 292 LU | signal to noise ratio (GPVI peptide 11 [21]): ~20 | signal to noise ratio (GPVI peptide 37 [22]): ~4 | signal to noise ratio (GPVI peptide 54 [23]): ~4
B1: monoclonal antibody hGP 5C4 (antibody, V domains shown)
VH: EVKLQESGGGLVQPGRSLKLSCTASGFTFSDYFMSWVRQAPTRGLEWVASISSGGASAYWRDSVKGRFTISRDNAKSALYLQMDSLRSEDTATYFCARGELDFDYWGQGVMVAVSS
VL: ADPNSTLLSASVGDRVTLNCTASQNVYKNLAWYQQKLGEAPRLLLYSANSQTGIPSRFSGSGSGPDFTLTISSLQPEDVASYFCQQYYSGNTFGAGTKLELKR
notes: Monoclonal IgG from Lou/C rats immunized with Fc-GPVI-nt; also called ab 5C4; anti-GPVI mAb 5C4
